From patent US20170355769A1 (AbbVie / Abbott, published 2017) come the findings set out here.

Assay [1] concerns the target T1, hB7-H3 (ELISA antigen of Tables 17 and 20) (human, UniProt Q5ZPR3 29-466, limits assumed).
T1 sequence: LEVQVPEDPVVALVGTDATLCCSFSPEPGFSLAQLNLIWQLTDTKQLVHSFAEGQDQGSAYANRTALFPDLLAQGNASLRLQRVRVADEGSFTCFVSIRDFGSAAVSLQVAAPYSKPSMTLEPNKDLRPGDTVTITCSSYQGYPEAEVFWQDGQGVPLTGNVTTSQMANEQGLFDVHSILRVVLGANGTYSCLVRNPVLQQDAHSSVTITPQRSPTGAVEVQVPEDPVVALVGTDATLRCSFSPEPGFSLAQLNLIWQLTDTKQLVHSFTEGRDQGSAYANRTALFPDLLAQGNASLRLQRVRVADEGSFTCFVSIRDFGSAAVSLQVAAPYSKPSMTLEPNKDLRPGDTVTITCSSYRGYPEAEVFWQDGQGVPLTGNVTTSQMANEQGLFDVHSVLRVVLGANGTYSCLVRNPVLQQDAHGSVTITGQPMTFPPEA
Put plainly: ELISA.

In assay [2] the target is T2, Human full length B7-H3 (human, UniProt Q5ZPR3 29-534).
T2 sequence: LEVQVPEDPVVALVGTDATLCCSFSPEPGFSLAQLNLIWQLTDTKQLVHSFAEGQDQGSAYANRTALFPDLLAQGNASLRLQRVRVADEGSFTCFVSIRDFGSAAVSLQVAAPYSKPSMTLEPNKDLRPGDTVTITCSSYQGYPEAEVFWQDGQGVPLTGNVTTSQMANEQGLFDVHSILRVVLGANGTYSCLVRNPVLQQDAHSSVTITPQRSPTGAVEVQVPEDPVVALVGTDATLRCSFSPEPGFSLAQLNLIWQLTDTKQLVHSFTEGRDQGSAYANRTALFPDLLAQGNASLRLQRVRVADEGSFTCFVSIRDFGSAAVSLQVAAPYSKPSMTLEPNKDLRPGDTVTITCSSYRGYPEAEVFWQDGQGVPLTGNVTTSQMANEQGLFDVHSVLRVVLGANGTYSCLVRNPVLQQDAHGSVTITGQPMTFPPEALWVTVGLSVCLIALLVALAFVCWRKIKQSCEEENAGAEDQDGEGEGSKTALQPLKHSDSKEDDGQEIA
Description: cell-based or functional assay.

Assay [3] deals with T3, Cynomolgous B7-H3 on cells (cynomolgus).
T3 construct: whole, on cells; also called cyB7-H3; cyno B7-H3
Put plainly: FACS, 3T12 transfectants. For orientation: In flow cytometry, cells or beads pass a laser one at a time.

Assay [4] concerns the target T2, Human full length B7-H3. Put plainly: FACS (Example 6 method). The method, then:
(§1) Cells were harvested from flasks when approximately 80% confluent using Gibco® Cell Dissociation Buffer. Cells were washed once in PBS/1% FBS (FACS buffer) then resuspended at 2.5×10⁶ cells/mL in FACS buffer. 100 μL of cells/well were added to a round bottom 96-well plate. 10 μL of a 10× concentration of mAb/ADC (final concentrations are indicated the figures). Wells were washed twice with FACS buffer and resuspended in 50 μL of secondary Ab (AlexaFluor 488) diluted in FACS buffer. The plate was incubated at 4° C. for one hour and washed twice with FACS buffer. Cells were resuspended in 100 μL of PBS/1% formaldehyde and analyzed on a Becton Dickinson LSRII flow cytometer. Data was analyzed using WinList flow cytometry analysis software.
(§2) These variants were further characterized for binding by SPR and as ADCs conjugated to the Bcl-xL inhibitor synthon (linker warhead) CZ. […] An ADC comprising chAb3 conjugated to synthon CZ was used as a control.

Assay [5] deals with T2, Human full length B7-H3. Put plainly: FACS, 3T12 transfectants.
The target of assay [6] is T2, Human full length B7-H3. Description: FACS, NCI-H1650 cells. The method, then: To generate purified chimeric antibodies, expression vectors were transiently transfected into HEK293 6E suspension cell cultures in a ratio of 60% to 40% light to heavy chain construct. 1 mg/ml of polyethylenimine (PEI) or 2.6 μL/mL of Expifectamine was used to transfect the cells. Cell supernatants were harvested after five days in shaking flasks, spun down to pellet cells, and filtered through 0.22 μm filters to separate IgG from culture contaminants. Antibody-containing supernatants were purified on Akta Pure using protein A mAb SelectSure. Columns were equilibrated in PBS pH 7.4, supernatants were then passed through the column and a wash was performed with PBS pH 7.4. IgG were eluted with 0.1 M acetic acid pH 3.5 and collected in several aliquots. Fractions containing IgG were pooled and dialyzed in PBS overnight at 4° C.
as §1

The target in assay [7] is T4, Human B7-H3-ECD (His tag) (human, UniProt Q5ZPR3 29-461).
T4 construct: SPR analyte; also called huB7-H3; soluble ECD of human B7-H3
T4 sequence: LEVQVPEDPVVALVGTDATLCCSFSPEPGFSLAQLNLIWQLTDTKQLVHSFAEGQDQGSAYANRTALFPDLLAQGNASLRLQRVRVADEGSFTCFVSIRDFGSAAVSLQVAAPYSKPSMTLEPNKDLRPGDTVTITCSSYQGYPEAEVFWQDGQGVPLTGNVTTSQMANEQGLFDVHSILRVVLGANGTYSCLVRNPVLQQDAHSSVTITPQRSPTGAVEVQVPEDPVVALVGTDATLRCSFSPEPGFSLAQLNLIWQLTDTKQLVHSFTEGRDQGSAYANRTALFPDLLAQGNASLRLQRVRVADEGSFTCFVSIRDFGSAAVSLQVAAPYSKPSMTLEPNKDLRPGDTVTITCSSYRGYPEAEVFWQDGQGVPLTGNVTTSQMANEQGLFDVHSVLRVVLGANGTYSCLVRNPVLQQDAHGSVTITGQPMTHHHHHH
Put plainly: SPR Biacore, naked mAb.
Source text: Biacore T200 SPR instruments were used to measure the binding kinetics of human B7-H3 (analyte) binding to various mAbs (ligands). The assay format was Fc-based capture via immobilized anti-mouse (Fc) (Pierce 31170) or immobilized anti-human (Fc) (Pierce 31125). A standard amine coupling protocol was employed to immobilize the capture reagents via primary amines to the carboxy-methyl (CM) dextran surface of CM5 sensorchips (Biacore); capture antibodies were coupled to a level of approximately 5000RU. For binding kinetic measurements the assay buffer was HBS-EP+ (Biacore): 10 mM Hepes, pH7.4, 150 mM NaCl, 3 mM EDTA, 0.05% polysorbate 20. During the assay, all measurements were referenced against the capture surface alone. Each assay cycle consisted of the following steps: 1) Capture of ligand to approximately 50RU; 2) Analyte injection over both reference and test surface, 240 μL at 80 μL/min, after which the dissociation was monitored for 900 seconds at 80 μL/min; 3) Regeneration of capture surface with low pH glycine. […] Data were processed and fit to a 1:1 binding model using Biacore T200 Evaluation Software to determine the binding kinetic rate constants, kₐ (on-rate) and kd (off-rate), and the equilibrium dissociation constant (affinity, KD).
as §2
(In general: In SPR one partner is held on a chip, and binding of the other changes the refractive index at the surface.)

The target in assay [8] is T2, Human full length B7-H3. Put plainly: FACS, cell surface human B7-H3 (as Example 6). Here is the method:
as §1
Nine anti-B7-H3 chimeric antibodies were conjugated to the Bcl-xL inhibiting (Bcl-xLi) synthon CZ (Example 2.1) using conjugation Method A described below. The resulting ADCs (anti-B7-H3 antibodies conjugated to synthon CZ) were tested for binding to cell surface human B7-H3 by FACS (as described in Example 6) and for cell cytotoxicity in cell lines expressing B7-H3. […] Table 6 provides cell surface binding and cytotoxicity activity of anti-B7-H3 chimera ADCs against breast cancer cell HCC38 expressing human B7-H3.

B1: huAb3v2.5-CZ (antibody, human IgG1, kappa, L234A L235A, V domains shown)
VH: EVQLVQSGAEVKKPGSSVKVSCKASGYTFSSYWMHWVRQAPGQGLEWIGLIHPESGSTNYNEMFKNRATLTVDRSTSTAYMELSSLRSEDTAVYYCAGGGRLYFDYWGQGTTVTVSS
VL: DIVMTQSPLSLPVTPGEPASISCRSSQSLVHSNRDTYLRWYLQKPGQSPQLLIYKVSNRFSGVPDRFSGSGSGTDFTLKISRVEAEDVGVYYCSQSTHVPYTFGGGTKVEIKR
modifications: synthon CZ on reduced interchain Cys
Consider B1, for which the EC50 (commonly the concentration giving half of the maximal effect) came to 0.13 nM in assay [1] and 4.86 nM in assay [3]. Besides, the “EC50 nM H1650 (tumor cell cytotoxicity)” value in the assay with Human full length B7-H3 [2] was 0.4 nM.

B2: huAb3v3-CZ (antibody, V domains shown)
VH: EVQLVQSGAEVKKPGSSVKVSCKASGYTFSSYWMHWVRQAPGQGLEWIGLIHPDSGSTNYNEMFKNRATLTVDRSTSTAYVELSSLRSEDTAVYFCAGGGRLYFDYWGQGTTVTVSS
VL: DVVMTQSPLSLPVTPGEPASISCRSSQSLVHSNGDTYLRWYLQKPGQSPQLLIYKVSNRFSGVPDRFSGSGSGTDFTLKISRVEAEDVGVYFCSQSTHVPYTFGGGTKVEIK
modifications: synthon CZ on reduced interchain Cys
notes: ADC, DAR 3.6
The molecule B2 registered an EC50 with Human full length B7-H3 [4] of 1.68 nM.

B3: huAb3v5-CZ (antibody, V domains shown)
VH: EVQLVQSGAEVKKPGSSVKVSCKASGYTFSSYWMHWVRQAPGQGLEWIGLIHPDSGSTNYNEMFKNRATLTVDRSTSTAYMELSSLRSEDTAVYYCAGGGRLYFDYWGQGTTVTVSS
VL: DVVMTQSPLSLPVTPGEPASISCRSSQSLVHSNGDTYLRWYLQKPGQSPQLLIYKVSNRFSGVPDRFSGSGSGTDFTLKISRVEAEDVGVYYCSQSTHVPYTFGGGTKVEIK
modifications: synthon CZ on reduced interchain Cys
notes: ADC, DAR 3.1
B3 returned an EC50 in the assay with Human full length B7-H3 [4] of 0.85 nM.

B4: huAb3v6-CZ (antibody, V domains shown)
VH: EVQLVQSGAEVKKPGSSVKVSCKASGYTFSSYWMHWVRQAPGQGLEWIGLIHPDSGSTNYNEMFKNRATLTVDRSTSTAYVELSSLRSEDTAVYFCAGGGRLYFDYWGQGTTVTVSS
VL: DVVMTQSPLSLPVTPGEPASISCRSSQSLVHSNGDTYLRWYLQKPGQSPQLLIYKVSNRFSGVPDRFSGSGSGTDFTLKISRVEAEDVGVYYCSQSTHVPYTFGGGTKVEIK
modifications: synthon CZ on reduced interchain Cys
notes: ADC, DAR 3.3
Take B4: the EC50 with Human full length B7-H3 [4] amounted to 1.78 nM.

B5: huAb3v2.3-CZ (antibody, V domains shown)
VH: EVQLVQSGAEVKKPGSSVKVSCKASGYTFSSYWMHWVRQAPGQGLEWIGLIHPWSGSTNYNEMFKNRATLTVDRSTSTAYMELSSLRSEDTAVYYCAGGGRLYFDYWGQGTTVTVSS
VL: DIVMTQSPLSLPVTPGEPASISCRSSQSLVHSNQDTYLRWYLQKPGQSPQLLIYKVSNRFSGVPDRFSGSGSGTDFTLKISRVEAEDVGVYYCSQSTHVPYTFGGGTKVEIK
modifications: synthon CZ on reduced interchain Cys
notes: ADC, DAR 1.1
As to B5, the EC50 in assay [1] stood at 0.11 nM; in the assay with Human full length B7-H3 [5], 6.5 nM; in assay [3], 4.03 nM.

B6: huAb3v1-CZ (antibody, V domains shown)
VH: EVQLVQSGAEVKKPGSSVKVSCKASGYTFSSYWMHWVRQAPGQGLEWMGLIHPDSGSTNYNEMFKNRVTITADKSTSTAYMELSSLRSEDTAVYYCARGGRLYFDYWGQGTTVTVSS
VL: DIVMTQSPLSLPVTPGEPASISCRSSQSLVHSNGDTYLRWYLQKPGQSPQLLIYKVSNRFSGVPDRFSGSGSGTDFTLKISRVEAEDVGVYYCSQSTHVPYTFGGGTKVEIK
modifications: synthon CZ on reduced interchain Cys
notes: ADC, DAR 3.6
Consider B6, for which a half-maximal effect with Human full length B7-H3 [4] (EC50) was put at 1.45 nM.

B7: huAb3v2.8-CZ (antibody, V domains shown)
VH: EVQLVQSGAEVKKPGSSVKVSCKASGYTFSSYWMHWVRQAPGQGLEWIGLIHPISGSTNYNEMFKNRATLTVDRSTSTAYMELSSLRSEDTAVYYCAGGGRLYFDYWGQGTTVTVSS
VL: DIVMTQSPLSLPVTPGEPASISCRSSQSLVHSNRDTYLRWYLQKPGQSPQLLIYKVSNRFSGVPDRFSGSGSGTDFTLKISRVEAEDVGVYYCSQSTHVPYTFGGGTKVEIK
modifications: synthon CZ on reduced interchain Cys
notes: ADC, DAR 2.0
In the case of B7, the EC50 in assay [1] was 0.14 nM; with Human full length B7-H3 [5], 3.94 nM; in assay [3], 3.01 nM.

B8: chAb3 (antibody, IgG1, V domains shown)
VH: QVQLQQPGAELVKPGASVKLSCKASGYTFSSYWMHWVKQRPGQGLEWIGLIHPDSGSTNYNEMFKNKATLTVDRSSSTAYVQLSSLTSEDSAVYFCAGGGRLYFDYWGQGTTLTVSS
VL: DVVMTQTPLSLPVSLGDQASISCRSSQSLVHSNGDTYLRWYLQKPGQSPKLLIYKVSNRFSGVPDRFSGSGSGTDFTLKITRVEAEDLGVYFCSQSTHVPYTFGGGTKLEIK
notes: chimeric, huIgG1/k
B8: a half-maximal response with Human full length B7-H3 [6] (EC50) required 0.61 nM. The affinity in assay [7], expressed as Kd, was 19 nM.

B9: chAb3-CZ (antibody, IgG1, V domains shown)
VH: QVQLQQPGAELVKPGASVKLSCKASGYTFSSYWMHWVKQRPGQGLEWIGLIHPDSGSTNYNEMFKNKATLTVDRSSSTAYVQLSSLTSEDSAVYFCAGGGRLYFDYWGQGTTLTVSS
VL: DVVMTQTPLSLPVSLGDQASISCRSSQSLVHSNGDTYLRWYLQKPGQSPKLLIYKVSNRFSGVPDRFSGSGSGTDFTLKITRVEAEDLGVYFCSQSTHVPYTFGGGTKLEIK
modifications: synthon CZ on reduced interchain Cys
On to B9, for which the EC50 was 0.61 nM with Human full length B7-H3 [4] and 0.65 nM with Human full length B7-H3 [8].
